Measurements from US20120178124A1, “STEROL SIDE CHAIN-CLEAVING ENZYME PROTEIN AND USE THEREOF” (MITSUBISHI CHEMICAL CORPORATION, priority 2009, published 2012).
Where “and” joins values, the source holds several entries; their conditions need not be identical. Identical values can stand only once.

Legend:
Assay type in all cases: biochemical
[1] = Kinetics analysis of CYP204A1 and CYPSS; conditions: for Specific activity: pH 7.5, 15° C., 60 minutes
Method: Moreover, the activity decrease rate when the substrate concentration is increased from 10 μM to 100 μM can also be obtained by conducting the conversion of 4-cholesten-3-one at a substrate concentration of 0.1 to 500 μM and then examining the relationship between the substrate concentration and the activity of the enzyme protein. Specifically, there is prepared 1 ml of a reaction solution, which comprises […] CYP204A1 or […] CYPSS204A, 96 μg/ml spinach-derived ferredoxin, 0.1 U/ml spinach-derived ferredoxin reductase protein, 3 U/ml glucose dehydrogenase, 60 mM glucose, 2 mM NADH and 2 mM NADPH. Tris-HCl is then added to the reaction mixture to adjust to pH 7.5. 20 μl of 4-cholesten-3-one used as a substrate, dissolved in DMSO to have a final concentration of 0.1, 0.5, 1, 2, 5, 10, 20, 50, 100 or 500 μM, is added to the reaction mixture. The reaction is initiated by addition of NADH and NADPH, and it can be carried out at 200 rpm at 15° C. for 60 minutes.
(§1) To 20 ml of the cell suspension prepared in (2) above, 680 μl of X10 Bug Buster (Novagen), 20 μl of Benzonase (Novagen), and 2 ml of 40 mg/ml lysozyme were added, and the obtained mixture was then shaken at 30° C. for 30 minutes to disintegrate the cells. Thereafter, the reaction solution was centrifuged to obtain the cell-free extract. The obtained, approximately 20 ml of cell-free extract was dialyzed against 1 L of Buffer R (20 mM KPB pH 7.4, 20% glycerol) two times, and the deposited precipitate was then removed by centrifugation. The cell-free extract obtained as a supernatant herein was used in the subsequent experiments.
Using the cell-free extract prepared in (3) above, conversion of 4-cholesten-3-one was carried out at substrate concentration of 0.1 to 500 μM, and the relationship between the substrate concentration and the enzyme protein activity was examined. The reaction solution was prepared, such that 1 ml of the buffer comprised 220 pmol CYP204A1 or 250 pmol CYPSS, 96 μg/ml spinach-derived ferredoxin, 0.1 U/ml spinach-derived ferredoxin reductase protein, 3 U/ml glucose dehydrogenase, 60 mM glucose, 2 mM NADH, and 2 mM NADPH. Tris-HCl was added to the reaction solution so as to adjust it to pH 7.5. 20 μl of 4-cholesten-3-one, which had been dissolved in DMSO to a final concentration of 0.1, 0.5, 1, 2, 5, 10, 20, 50, 100 or 500 μM, was added. The reaction was initiated by addition of NADH and NADPH, and it was carried out at 200 rpm at 15° C. for 60 minutes. Thereafter, 1.5 ml of ethyl acetate was added to the reaction solution to terminate the reaction, and extraction was carried out. Then, extraction was carried out again with 0.75 ml of ethyl acetate. The obtained ethyl acetate phase was solidified using evaporator, and the residue was then dissolved in 200 μl of methanol. Thereafter, progesterone was detected by HPLC analysis. The relationship between the substrate concentration and the enzyme protein activity, and kinetics parameters calculated by production of Lineweaver-Burk plot, is shown in Table 5.

[2] = pH stability test of cell-free extract; conditions: for Relative activity: 140 hr versus 0 hr, 6° C.; for Activity 0 hr: immediately after mixing, reaction 15° C., 4 hours, pH 7.5
Method: as §1
0.5 ml of the cell-free extract prepared in (3) above was mixed with 0.5 ml of 50 mM buffer having various pH values, pH was then measured, and the mixture was then conserved at 6° C. for 140 hours. […] Using the prepared cell-free extracts having various pH values, conversion of 4-cholesten-3-one was carried out. The reaction was carried out, immediately after the enzyme protein solution was mixed with buffers having various pH values and after the mixed solution was conserved for 140 hours, so as to examine the stability. The reaction solution was prepared, such that 1 ml of the buffer comprised an enzyme protein solution of CYP204A1 or CYPSS having various pH values, 64 μg/ml spinach-derived ferredoxin, 0.1 U/ml spinach-derived ferredoxin reductase protein, 3 U/ml glucose dehydrogenase, 60 mM glucose, 50 μg/ml 4-cholesten-3-one, 2 mM NADH, and 2 mM NADPH. To the reaction solution, 562 μl of 200 mM Tris-HCl was added, so as to adjust the reaction solution to pH 7.5. It was confirmed that the reaction solution maintained pH 7.5, even though enzyme protein solutions having various pH values were added thereto. The reaction was initiated by addition of NADH and NADPH, and it was carried out at 200 rpm at 15° C. for 4 hours. Thereafter, 1.5 ml of ethyl acetate was added to the reaction solution to terminate the reaction, and extraction was carried out. Then, extraction was carried out again with 0.75 ml of ethyl acetate. The obtained ethyl acetate phase was solidified using an evaporator, and the residue was then dissolved in 200 μl of methanol. Thereafter, progesterone was detected by HPLC analysis.

[3] = Kinetics analysis of CYP204A1 and CYPSS; conditions: 4-cholesten-3-one 100 μg/ml (so in the source)
[4] = 4-cholesten-3-one concn. 100 μM
[5] = 4-cholesten-3-one, Lineweaver-Burk plot

B1: CYP204A1: P450scc from Novosphingobium aromaticivorans ATCC 700278, amino acid sequence SEQ ID NO: 23 (protein)
chain: MARAATAAGNGLPLLDGGVPLLGHLAQFFRDPVSVLKRGYRSKGRLFAMNFMGQRMNVMLGPEHNRFFFEETDKLLSIRESMPFFLKMFSPEFYSFAEMDEYLRQRSIIMPRFKAASMKQYVPVMVEESLNLVERLGEEGEFDLIPTLGPVVMDIAAHSFMGREFHEKLGHEFFELFRDFSGGMEFVLPLWLPTPKMVKSQRAKRKLHAILQSWIDKRRAAPLDPPDFFQTMIETKYPDGRPVPDEIIRHLILLLVWAGHETTAGQVSWALADLLQNPDYQKVLRGEISSLLGGSDGRDLGWEQAVAMEKMDLALRETERLHPVAYMLSRKARADIERDGYVIRKGEFVLLAPSVSHRMEETFRNPDAYDPERFNPANPDAQIESNSLIGFGGGVHRCAGVNFARMEMKVLVAILLQNFDMELMDEVRPIAGASTYWPAQPCRVRYRRRKLDGSEAGADMAALARAAGCPAHT
modifications: Novosphingobium aromaticivorans
[1]; 4-cholesten-3-one concn. 0.1 μM
  Specific activity: 2.2 mmol/min/mol
[1]; 4-cholesten-3-one concn. 0.5 μM
  Specific activity: 15.3 mmol/min/mol
[1]; 4-cholesten-3-one concn. 1 μM
  Specific activity: 25.2 mmol/min/mol
[1]; 4-cholesten-3-one concn. 2 μM
  Specific activity: 32.2 mmol/min/mol
[1]; 4-cholesten-3-one concn. 5 μM
  Specific activity: 36.1 mmol/min/mol
[1]; 4-cholesten-3-one concn. 10 μM (reference)
  Specific activity relative to that at 10 μM: 100
[1]; 4-cholesten-3-one concn. 10 μM
  Specific activity: 43.1 mmol/min/mol
[1]; 4-cholesten-3-one concn. 20 μM
  Specific activity: 42.7 mmol/min/mol
[1]; 4-cholesten-3-one concn. 50 μM
  Specific activity: 33.5 mmol/min/mol
[1]; [4]
  Specific activity relative to that at 10 μM: 66.6
  Specific activity: 28.7 mmol/min/mol
[1]; 4-cholesten-3-one concn. 500 μM
  Specific activity: 20.1 mmol/min/mol
[1]; [5]
  Km: 1 µM and ~1 µM
  Vmax: 47.4 mmol/min/mol
[2]; AcB pH 6.0
  Relative activity: 24%
  Activity 0 hr: 2.1 µg/mL
[2]; AcB pH 6.0, conserved at 6° C. for 140 hours
  Activity 140 hr: 0.5 µg/mL
[2]; KPB pH 6.7
  Relative activity: 53%
  Activity 0 hr: 1.9 µg/mL
[2]; KPB pH 6.7, conserved at 6° C. for 140 hours
  Activity 140 hr: 1 µg/mL
[2]; KPB pH 7.2
  Relative activity: 65%
  Activity 0 hr: 2 µg/mL
[2]; KPB pH 7.2, conserved at 6° C. for 140 hours
  Activity 140 hr: 1.3 µg/mL
[2]; KPB pH 7.6
  Relative activity: 70%
  Activity 0 hr: 2 µg/mL
[2]; KPB pH 7.6, conserved at 6° C. for 140 hours
  Activity 140 hr: 1.4 µg/mL
[2]; KPB, conserved at 6° C. for 140 hours
  pH at which most stable: 7.6
[2]; TES pH 7.5
  Relative activity: 68%
  Activity 0 hr: 2.2 µg/mL
[2]; TES pH 7.5, conserved at 6° C. for 140 hours
  Activity 140 hr: 1.5 µg/mL
[2]; Tris pH 7.4
  Relative activity: 62%
  Activity 0 hr: 2.1 µg/mL
[2]; Tris pH 7.4, conserved at 6° C. for 140 hours
  Activity 140 hr: 1.3 µg/mL
[2]; Tris pH 8.1
  Relative activity: 50%
  Activity 0 hr: 2 µg/mL
[2]; Tris pH 8.1, conserved at 6° C. for 140 hours
  Activity 140 hr: 1 µg/mL
[2]; Tris pH 8.9
  Relative activity: 35%
  Activity 0 hr: 2 µg/mL
[2]; Tris pH 8.9, conserved at 6° C. for 140 hours
  Activity 140 hr: 0.7 µg/mL
[3]
  enzyme protein activity in comparison with that at 10 μM 4-cholesten-3-one: 67%
